# B1: U3 small nucleolar RNA-associated protein 4 homolog (Homo sapiens), Q969X6 (parent)
# chain: MGEFKVHRVRFFNYVPSGIRCVAYNNQSNRLAVSRTDGTVEIYNLSANYFQEKFFPGHESRATEALCWAEGQRLFSAGLNGEIMEYDLQALNIKYAMDAFGGPIWSMAASPSGSQLLVGCEDGSVKLFQITPDKIQFERNFDRQKSRILSLSWHPSGTHIAAGSIDYISVFDVKSGSAVHKMIVDRQYMGVSKRKCIVWGVAFLSDGTIISVDSAGKVQFWDSATGTLVKSHLIANADVQSIAVADQEDSFVVGTAEGTVFHFQLVPVTSNSSEKQWVRTKPFQHHTHDVRTVAHSPTALISGGTDTHLVFRPLMEKVEVKNYDAALRKITFPHRCLISCSKKRQLLLFQFAHHLELWRLGSTVATGKNGDTLPLSKNADHLLHLKTKGPENIICSCISPCGSWIAYSTVSRFFLYRLNYEHDNISLKRVSKMPAFLRSALQILFSEDSTKLFVASNQGALHIVQLSGGSFKHLHAFQPQSGTVEAMCLLAVSPDGNWLAASGTSAGVHVYNVKQLKLHCTVPAYNFPVTAMAIAPNTNNLVIAHSDQQVFEYSIPDKQYTDWSRTVQKQGFHHLWLQRDTPITHISFHPKRPMHILLHDAYMFCIIDKSLPLPNDKTLLYNPFPPTNESDVIRRRTAHAFKISKIYKPLLFMDLLDERTLVAVERPLDDIIAQLPPPIKKKKFGT
# partner: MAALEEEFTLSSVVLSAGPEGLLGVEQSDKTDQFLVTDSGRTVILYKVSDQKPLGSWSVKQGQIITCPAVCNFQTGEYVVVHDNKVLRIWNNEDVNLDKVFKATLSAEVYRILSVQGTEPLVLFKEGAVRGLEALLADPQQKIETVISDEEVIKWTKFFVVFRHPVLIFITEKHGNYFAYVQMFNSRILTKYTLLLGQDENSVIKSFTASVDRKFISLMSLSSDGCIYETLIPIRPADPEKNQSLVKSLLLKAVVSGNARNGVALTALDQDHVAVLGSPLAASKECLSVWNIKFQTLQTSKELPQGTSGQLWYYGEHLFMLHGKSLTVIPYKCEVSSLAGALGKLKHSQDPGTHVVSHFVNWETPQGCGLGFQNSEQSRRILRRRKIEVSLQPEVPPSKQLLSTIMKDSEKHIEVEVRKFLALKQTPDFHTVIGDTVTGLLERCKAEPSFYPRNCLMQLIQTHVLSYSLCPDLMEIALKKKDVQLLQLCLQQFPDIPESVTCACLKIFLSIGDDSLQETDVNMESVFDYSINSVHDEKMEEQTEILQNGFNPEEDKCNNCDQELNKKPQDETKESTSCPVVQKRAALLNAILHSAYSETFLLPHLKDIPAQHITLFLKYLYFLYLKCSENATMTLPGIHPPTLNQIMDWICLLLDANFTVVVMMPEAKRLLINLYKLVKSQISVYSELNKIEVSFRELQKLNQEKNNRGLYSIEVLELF
# Variants of: B1
# Settings: with nol11_human NOL11, Q9H8H0
row,Variant,effect of a mutation on the interaction
1,R565W,decreasing interaction strength
